From US20210363265A1 (INVENRA, published 2021)
Where a chain is given by its changes, count along the chain named. Values belong to the binder of their own block, whether it stands above or below them.

Tests used:
OX40: 127-214-Fc = target: T1, OX40: 127-214-Fc (human); assay: BLI, OX40-Fc truncation immobilized on sensor
T1 construct: Immobilized on the BLI sensor

OX40: 108-214-Fc = target: T2, OX40: 108-214-Fc (human); assay: BLI, OX40-Fc fragment immobilized on sensor
T2 construct: Immobilized on the BLI sensor
T2 sequence (chain, as listed by the source): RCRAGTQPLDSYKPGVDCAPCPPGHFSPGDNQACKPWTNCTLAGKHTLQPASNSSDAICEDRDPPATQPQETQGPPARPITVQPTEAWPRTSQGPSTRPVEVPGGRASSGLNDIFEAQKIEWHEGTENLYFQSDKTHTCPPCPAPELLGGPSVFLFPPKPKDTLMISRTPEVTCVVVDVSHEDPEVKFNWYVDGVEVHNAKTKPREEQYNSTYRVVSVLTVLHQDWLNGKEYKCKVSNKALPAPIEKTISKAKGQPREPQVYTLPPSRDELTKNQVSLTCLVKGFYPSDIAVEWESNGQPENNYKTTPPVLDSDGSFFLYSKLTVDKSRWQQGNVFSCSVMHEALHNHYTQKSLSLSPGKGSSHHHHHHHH

OX40: 66-214-Fc = target: T3, OX40: 66-214-Fc (human); assay: BLI, OX40-Fc fragment immobilized on sensor
T3 construct: Immobilized on the BLI sensor; also called first truncation
T3 sequence (chain, as listed by the source): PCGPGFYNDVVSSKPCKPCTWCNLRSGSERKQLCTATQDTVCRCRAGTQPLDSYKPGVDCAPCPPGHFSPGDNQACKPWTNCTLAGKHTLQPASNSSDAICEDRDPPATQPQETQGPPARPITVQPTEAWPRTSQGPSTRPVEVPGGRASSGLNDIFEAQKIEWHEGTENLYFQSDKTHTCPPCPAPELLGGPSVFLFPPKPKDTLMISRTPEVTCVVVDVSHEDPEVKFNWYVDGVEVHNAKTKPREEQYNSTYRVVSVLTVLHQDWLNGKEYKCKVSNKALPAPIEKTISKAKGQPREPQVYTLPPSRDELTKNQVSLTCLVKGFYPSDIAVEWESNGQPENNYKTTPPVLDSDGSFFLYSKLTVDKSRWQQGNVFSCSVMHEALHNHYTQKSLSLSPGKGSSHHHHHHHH

[1] = target: T4, OX40 on T cells (primary naive CD4+ T cells; Jurkat/OX40 reporter cells) (UniProt P43489 29-277, limits assumed); assay: cell-based or functional assay
T4 sequence (looked up): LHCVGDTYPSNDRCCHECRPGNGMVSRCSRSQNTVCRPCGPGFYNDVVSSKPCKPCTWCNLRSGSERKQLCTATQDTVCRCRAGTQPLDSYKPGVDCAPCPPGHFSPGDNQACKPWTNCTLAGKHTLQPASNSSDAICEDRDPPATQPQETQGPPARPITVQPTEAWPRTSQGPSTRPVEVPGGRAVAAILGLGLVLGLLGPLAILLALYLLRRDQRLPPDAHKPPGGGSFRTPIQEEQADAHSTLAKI

T1 sequence (chain, as listed by the source): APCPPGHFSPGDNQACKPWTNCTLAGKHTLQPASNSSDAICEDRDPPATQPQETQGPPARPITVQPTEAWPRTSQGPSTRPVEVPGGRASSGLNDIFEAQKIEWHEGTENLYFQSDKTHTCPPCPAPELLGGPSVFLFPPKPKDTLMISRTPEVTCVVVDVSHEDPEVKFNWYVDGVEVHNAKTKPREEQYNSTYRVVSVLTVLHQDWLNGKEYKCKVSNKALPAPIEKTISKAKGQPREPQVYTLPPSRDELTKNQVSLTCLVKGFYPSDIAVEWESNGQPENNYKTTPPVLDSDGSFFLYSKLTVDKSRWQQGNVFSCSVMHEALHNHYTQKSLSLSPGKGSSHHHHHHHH

binding result (OX40: 127-214-Fc): no binding
binding result (OX40: 108-214-Fc): binds
B1: Tavolixizumab (IgG1-kappa) (antibody, V domains shown)
VH: QVQLQESGPGLVKPSQTLSLTCAVYGGSFSSGYWNWIRKHPGKGLEYIGYISYNGITYHNPSLKSRITINRDTSKNQYSLQLNSVTPEDTAVYYCARYKYDYDGGHAMDYWGQGTLVTVSS
VL: DIQMTQSPSSLSASVGDRVTITCRASQDISNYLNWYQQKPGKAPKLLIYYTSKLHSGVPSRFSGSGSGTDYTLTISSLQPEDFATYYCQQGSALPWTFGQGTKVEIKR

binding result (OX40: 127-214-Fc): no binding
binding result (OX40: 108-214-Fc): binds
B2: Pogalizumab (IgG1-kappa) (antibody, V domains shown)
VH: EVQLVQSGAEVKKPGASVKVSCKASGYTFTDSYMSWVRQAPGQGLEWIGDMYPDNGDSSYNQKFRERVTITRDTSTSTAYLELSSLRSEDTAVYYCVLAPRWYFSVWGQGTLVTVSS
VL: B1 VL with K53R, H55R, Y71F, S92H, A93T, W96P
notes: also called Pagolizumab

binding result (OX40: 66-214-Fc): binds
B3: GSK3174998 (antibody, human IgG1, kappa, V domains shown)
VH: EVKLEESGGGLVQPGGSMKLSCAASGFTFSDAWMDWVRQSPEKGLEWVAEIRSKANNHATYYAESVNGRFTISRDDSKSSVYLQMNSLRAEDTGIYYCTWGEVFYFDYWGQGTTLTVSS
VL: DIQMTQSPSSLSASLGGKVTITCKSSQDINKYIAWYQHKPGKGPRLLIHYTSTLQPGIPSRFSGSGSGRDYSFSISNLEPEDIATYYCLQYDNLLTFGAGTKLELKR
notes: also called Clinical mAB; clinical

antibody concentration at peak T cell proliferation [1]: 10 nM
B4: OX40:24-24×11 (bispecific antibody)
chain 1: not shown
chain 2: EVQLVESGGGLVQPGGSLRLSCAASGFTFLSYYIHWVRQAPGKGLEWVAYIDPYSGGTDYADSVKGRFTISADTSKNTAYLQMNSLRAEDTAVYYCARVGLSFYAQEPVLDYWGQGTLVTVSSASPREPQVYTDPPSRDELTKNQVSLTCLVKGFYPSDIAVEWESNGQPENNYKTTPPVLDSDGSFFLYSKLTVDKSRWQQGNVFSCSVMHEALHNHYTQKSLSLSGEC
chain 3: DIQMTQSPSSLSASVGDRVTITCRASQSVSSAVAWYQQKPGKAPKLLIYSASSLYSGVPSRFSGSRSGTDFTLTISSLQPEDFATYYCQQYTSHPGTFGQGTKVEIKRTVAAPSVFIFPPSDEQLKSGTASVVCLLNNFYPREAKVQWKVDNALQSGNSQESVTEQDSKDSTYSLSSTLTLSKADYEKHKVYACEVTHQGLSSPVTKSFNRGECDKTHTCPPCPAPELLGGPSVFLFPPKPKDTLMISRTPEVTCVVVDVSHEDPEVKFNWYVDGVEVHNAKTKPREEQYNSTYRVVSVLTVLHQDWLNGKEYKCKVSNKALPAPIEKTISKAKGQPREPQVCTLPPSREEMTKNQVSLSCAVKGFYPSDIAVEWESNGQPENNYKTTPPVLDSDGSFFLVSKLTVDKSRWQQGNVFSCSVMHEALHNHYTQKSLSLSPGK
chain 4: EVQLVESGGGLVQPGGSLRLSCAASGFTFSSYVIHWVRQAPGKGLEWVAYIFPYGGTTYYADSVKGRFTISADTSKNTAYLQMNSLRAEDTAVYYCARGYYYVSDRVMDYWGQGTLVTVSSASTKGPSVFPLAPSSKSTSGGTAALGCLVKDYFPEPVTVSWNSGALTSGVHTFPAVLQSSGLYSLSSVVTVPSSSLGTQTYICNVNHKPSNTKVDKKVEPPKSC

antibody concentration at peak T cell proliferation [1]: < 10 nM
B5: OX40:24(WEE)-11×11 (bispecific antibody)
chain 1: not shown
chain 2: B4 chain 4
chain 3: B4 chain 3
chain 4: B4 chain 2

antibody concentration at peak T cell proliferation [1]: 10 nM
B6: OX40:24-24(WEE)×11 (bispecific antibody)
chain 1: not shown
chain 2: B4 chain 2
chain 3: B4 chain 3
chain 4: B4 chain 4

antibody concentration at peak T cell proliferation [1]: < 10 nM
B7: OX40:24-11×11 (bispecific antibody)
chain 1: not shown
chain 2: B4 chain 4
chain 3: B4 chain 3
chain 4: B4 chain 2
